Consider one substance from patent US20030113711A1, “Protein kinase peptide substrate determination using peptide libraries” (priority 2001, published 2003).

Broadly, the Km is the substrate concentration at which the rate is half of its maximum. Broadly, the kcat is the number of substrate molecules converted per active site and unit of time at saturation. By kcat/Km is commonly meant the second-order rate constant that governs catalysis at low substrate concentration.

Assay type in all cases: biochemical
Data set [1] concerns C[C@H](NC(=O)[C@H](CCCNC(=N)N)NC(=O)CCCCCNC(=O)CCCC[C@@H]1SC[C@@H]2NC(=O)N[C@@H]21)C(=O)N[C@@H](Cc1c[nH]cn1)C(=O)N[C@@H](CCC(=O)O)C(=O)N[C@@H](CCC(=O)O)C(=O)N[C@@H](CCC(=O)O)C(=O)N[C@@H](Cc1ccc(O)cc1)C(=O)N[C@@H](Cc1c[nH]cn1)C(=O)N[C@@H](Cc1ccccc1)C(=O)N[C@@H](Cc1ccccc1)C(=O)N[C@@H](Cc1ccccc1)C(=O)N[C@@H](C)C(=O)N[C@@H](CCCCN)C(=O)N[C@@H](CCCCN)C(=O)N[C@@H](CCCCN)C(N)=O. As to the kind of experiment: Kinetic evaluation of peptide substrates, varying peptide at fixed ATP (phosphocellulose filter, [γ-33P]ATP). As to conditions: other: ErbB-2; Km for peptide; ATP concentration >10 × Km (200 μM ATP); pH 7.5; 23.0 °C. The procedure: (§1) Peptide sequences identified as preferred substrates for ErbB-2 using the methods described in Laboratory Example 3 were synthesized. The kcat and Km values for each peptide were determined as follows, using the kinases ErbB-2, ErbB-4, and EGFR.
(§2) Reactions were performed in 96-well polystyrene round bottom plates in a final volume of 45 μL. Reaction mixtures contained 50 mM MOPS, pH 7.5, 10 mM MnCl2, 1 mM dithiothreitol (DTT), 200 μM ATP, 1.0 μCi [γ-^33P] ATP, and varying concentrations of peptide. The reaction was initiated by adding the purified kinase of interest and halted after 10 minutes at 23° C. (room temperature) by adding 45 μL of 0.5% phosphoric acid in water. A 75 μL aliquot of the halted reaction mixture was then transferred to MAPH phosphocellulose filter plates (Millipore, Bedford, Mass.). The plates were filtered three times with 0.2 mL of 0.5 percent phosphoric acid. Scintillation cocktail (50 μL) was added to each well, and the plate was analyzed by counting in a Packard TOPCOUNT® scintillation counter (Packard Instrument Co., Meriden, Conn.). In these assays, the concentration of ATP was greater than ten-fold higher than the Km for ATP, which permitted the kinetic data to be treated as a pseudo-first-order reaction with varying peptide concentration. All experiments were performed in quadruplicate and the average value for each data point was analyzed. The Km and Vmax values were calculated by fitting the data to the Henri-Michaelis-Menten equation by non-linear regression using SIGMAPLOT® (SPSS Science, Chicago, Ill.). kcat values were calculated using the Vmax value, and are based on the protein concentration of the enzyme preparation and an estimate of purity determined from an evaluation of a Coomassie Blue stained SDS-polyacrylamide gel.

The subject of data set [2] is CC[C@H](C)[C@H](NC(=O)[C@H](CCC(=O)O)NC(=O)[C@H](Cc1c[nH]cn1)NC(=O)[C@H](Cc1c[nH]cn1)NC(=O)[C@H](C)NC(=O)[C@H](CCCNC(=N)N)NC(=O)CCCCCNC(=O)CCCC[C@@H]1SC[C@@H]2NC(=O)N[C@@H]21)C(=O)N[C@@H](Cc1ccc(O)cc1)C(=O)N[C@@H](Cc1c[nH]cn1)C(=O)N[C@@H](Cc1ccccc1)C(=O)N[C@@H](Cc1ccccc1)C(=O)N[C@@H](Cc1ccccc1)C(=O)N[C@@H](C)C(=O)N[C@@H](CCCCN)C(=O)N[C@@H](CCCCN)C(=O)N[C@@H](CCCCN)C(N)=O. Described as above. As to conditions: other: ErbB-2; Km for peptide; ATP concentration >10 × Km (200 μM ATP); pH 7.5; 23.0 °C. The procedure:
as §1, §2

The test system of data set [3] is CC[C@H](C)[C@H](NC(=O)[C@H](CCC(=O)O)NC(=O)[C@H](CCC(=O)O)NC(=O)[C@H](Cc1c[nH]cn1)NC(=O)[C@H](C)NC(=O)[C@H](CCCNC(=N)N)NC(=O)CCCCCNC(=O)CCCC[C@@H]1SC[C@@H]2NC(=O)N[C@@H]21)C(=O)N[C@@H](Cc1ccc(O)cc1)C(=O)N[C@@H](Cc1c[nH]cn1)C(=O)N[C@@H](Cc1ccccc1)C(=O)N[C@@H](Cc1ccccc1)C(=O)N[C@@H](Cc1ccccc1)C(=O)N[C@@H](C)C(=O)N[C@@H](CCCCN)C(=O)N[C@@H](CCCCN)C(=O)N[C@@H](CCCCN)C(N)=O. As to the kind of experiment: Two-substrate kinetic comparison with known substrate, peptide and ATP varied simultaneously. As to conditions: other: ErbB-2; peptide and ATP concentrations varied simultaneously, two-substrate fit. The procedure:
(§3) In a separate experiment, the kinetic parameters of both peptide number 1 shown in Table 2, and a peptide with the sequence Biotin-Ahx-G-G-M-E-D-I-Y-F-E-F-M-G-G-K-K-K-amide (SEQ ID NO: 17), which has been previously identified as an ErbB-2 substrate (Jan et. al., (2000), Biochemistry 39: 9786-803), were determined and compared. In this experiment, both peptide and ATP concentrations were varied, and the resulting data was simultaneously fit to an equation representing a two-substrate enzyme reaction using SIGMAPLOT®. Data was collected using the kinases ErbB-2, ErbB-4, and EGFR. The results of this experiment are shown in Table 3 and indicate that for all three kinases tested, peptide number 1 shown in Table 2 is kinetically at least equivalent (based on kcat/Km values) to the known peptide substrate identified by Jan et al.

For data set [4], the system named is CC[C@H](C)[C@H](NC(=O)[C@H](CC(=O)O)NC(=O)[C@H](CCC(=O)O)NC(=O)[C@H](CCSC)NC(=O)CNC(=O)CNC(=O)CCCCCNC(=O)CCCC[C@@H]1SC[C@@H]2NC(=O)N[C@@H]21)C(=O)N[C@@H](Cc1ccc(O)cc1)C(=O)N[C@@H](Cc1ccccc1)C(=O)N[C@@H](CCC(=O)O)C(=O)N[C@@H](Cc1ccccc1)C(=O)N[C@@H](CCSC)C(=O)NCC(=O)NCC(=O)N[C@@H](CCCCN)C(=O)N[C@@H](CCCCN)C(=O)N[C@@H](CCCCN)C(N)=O. The description is as above. As to conditions: other: ErbB-2; peptide and ATP concentrations varied simultaneously, two-substrate fit. Here is the method: as §3

For the substance ErbB-2 (Homo sapiens), the Km was determined as 6.8 µM in data set [1], 66.6 µM in data set [2], 58 µM in data set [3] and 157 µM in data set [4]. Besides, the kcat in data set [1] was 0.0127 s⁻¹; in data set [2], 0.173 s⁻¹; in data set [3], 0.0233 s⁻¹; in data set [4], 0.0367 s⁻¹. Further, the kcat/Km was found to be 1830 M⁻¹ s⁻¹ in data set [1], 2670 M⁻¹ s⁻¹ in data set [2], 417 M⁻¹ s⁻¹ in data set [3] and 233 M⁻¹ s⁻¹ in data set [4].
